Laboratory results: patent US20210340207A1 (Merck Sharp & Dohme, published 2021)
Changes are numbered by the printed parent chain. Names may count otherwise. Blank lines part the entries; values can stand above or below the binder they belong to. *1 amine or outer side, *2 acyl side, *3 side chain or, on linkers, in order; H or OH if unused. [ ]: non-standard residue; d: D form. pAMF = para-azidomethylphenylalanine, [N-]=[N+]=NCc1ccc(C[C@H](N[*:1])C(=O)[*:2])cc1

Legend:
[1] = target: T1, mouse IL-2Rαβγc (on CTLL2-STAT5 reporter cells) (mouse, UniProt P01590 22-268; P16297 27-539; P34902 23-369); assay: cell-based or functional assay
T1 sequence (looked up) 1: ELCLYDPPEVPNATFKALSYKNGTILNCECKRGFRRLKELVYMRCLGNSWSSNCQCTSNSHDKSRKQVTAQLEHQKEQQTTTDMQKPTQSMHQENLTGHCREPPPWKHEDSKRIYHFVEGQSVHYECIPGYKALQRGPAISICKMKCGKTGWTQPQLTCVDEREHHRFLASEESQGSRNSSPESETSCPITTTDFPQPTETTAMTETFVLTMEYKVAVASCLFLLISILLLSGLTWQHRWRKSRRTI
T1 sequence (looked up) 2: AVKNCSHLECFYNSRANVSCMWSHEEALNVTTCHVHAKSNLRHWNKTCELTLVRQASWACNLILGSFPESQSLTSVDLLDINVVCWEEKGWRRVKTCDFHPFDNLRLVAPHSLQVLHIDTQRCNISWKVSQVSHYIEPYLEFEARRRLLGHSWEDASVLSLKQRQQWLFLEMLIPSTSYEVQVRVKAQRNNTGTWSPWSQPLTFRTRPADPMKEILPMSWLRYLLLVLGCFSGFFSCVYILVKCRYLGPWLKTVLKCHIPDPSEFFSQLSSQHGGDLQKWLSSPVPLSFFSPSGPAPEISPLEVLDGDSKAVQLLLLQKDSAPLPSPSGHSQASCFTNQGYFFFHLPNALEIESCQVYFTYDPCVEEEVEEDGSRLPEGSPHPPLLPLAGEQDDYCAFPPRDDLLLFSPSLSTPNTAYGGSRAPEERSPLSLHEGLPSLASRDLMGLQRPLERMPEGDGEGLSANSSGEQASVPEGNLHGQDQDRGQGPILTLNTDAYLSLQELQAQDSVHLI
T1 sequence (looked up) 3: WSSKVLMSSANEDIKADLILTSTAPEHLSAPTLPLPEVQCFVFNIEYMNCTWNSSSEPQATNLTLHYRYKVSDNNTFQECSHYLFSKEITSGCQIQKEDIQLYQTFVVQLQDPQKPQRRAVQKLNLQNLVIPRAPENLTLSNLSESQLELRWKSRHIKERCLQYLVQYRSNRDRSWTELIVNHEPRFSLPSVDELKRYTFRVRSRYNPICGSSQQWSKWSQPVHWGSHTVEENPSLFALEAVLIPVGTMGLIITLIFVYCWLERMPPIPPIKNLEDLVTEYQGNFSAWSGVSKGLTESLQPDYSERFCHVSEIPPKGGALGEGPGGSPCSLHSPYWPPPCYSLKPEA

[2] = target: T2, human IL-2Rβγc (on DERL-7 cells, U2OS IL2RB/IL2RG cells, CD25 knockout Kit225-STAT5 cells, primary CD8+ CTLs) (human, UniProt P14784 27-551; P31785 23-369); assay: cell-based or functional assay
T2 sequence (looked up) 1: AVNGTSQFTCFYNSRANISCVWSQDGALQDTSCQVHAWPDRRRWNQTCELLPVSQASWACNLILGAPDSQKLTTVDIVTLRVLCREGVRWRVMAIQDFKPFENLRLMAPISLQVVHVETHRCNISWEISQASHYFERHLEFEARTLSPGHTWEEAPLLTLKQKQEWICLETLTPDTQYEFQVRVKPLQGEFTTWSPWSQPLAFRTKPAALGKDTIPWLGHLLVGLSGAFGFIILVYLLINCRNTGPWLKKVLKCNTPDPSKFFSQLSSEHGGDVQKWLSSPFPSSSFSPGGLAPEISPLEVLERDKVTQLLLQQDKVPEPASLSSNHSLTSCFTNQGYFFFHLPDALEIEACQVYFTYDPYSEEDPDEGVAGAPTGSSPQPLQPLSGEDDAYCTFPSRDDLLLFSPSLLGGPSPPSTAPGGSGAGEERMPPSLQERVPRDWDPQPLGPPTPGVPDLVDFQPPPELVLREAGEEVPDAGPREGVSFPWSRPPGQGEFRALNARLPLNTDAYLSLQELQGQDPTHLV
T2 sequence (looked up) 2: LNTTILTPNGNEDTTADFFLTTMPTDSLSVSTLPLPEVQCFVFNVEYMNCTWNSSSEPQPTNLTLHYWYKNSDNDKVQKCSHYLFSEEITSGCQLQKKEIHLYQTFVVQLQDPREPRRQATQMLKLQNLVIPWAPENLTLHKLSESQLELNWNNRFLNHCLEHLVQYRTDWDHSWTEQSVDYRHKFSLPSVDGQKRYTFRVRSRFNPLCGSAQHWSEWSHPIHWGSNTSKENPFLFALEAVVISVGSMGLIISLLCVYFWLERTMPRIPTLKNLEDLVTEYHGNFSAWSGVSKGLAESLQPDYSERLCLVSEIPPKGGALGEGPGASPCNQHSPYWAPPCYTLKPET

Biotin-IL-2Rα-His = target: T3, Biotin-IL-2Rα-His (UniProt P01589 22-213, limits assumed, biotin-labeled (site not stated)); assay: SPR (Biacore T200)
T3 construct: also called biotin-labeled IL-2Rα; not shown: His tag
T3 sequence (looked up): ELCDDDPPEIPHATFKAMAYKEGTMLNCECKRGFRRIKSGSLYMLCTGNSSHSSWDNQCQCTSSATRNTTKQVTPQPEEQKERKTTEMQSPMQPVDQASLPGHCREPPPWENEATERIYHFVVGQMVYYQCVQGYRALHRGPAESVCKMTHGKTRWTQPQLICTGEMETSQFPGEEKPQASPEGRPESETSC

Biotin-IL-2Rβ-His = target: T4, Biotin-IL-2Rβ-His (UniProt P14784 27-239, limits assumed, biotin-labeled (site not stated)); assay: SPR (Biacore T200)
T4 construct: also called biotin-labeled IL-2Rβ; not shown: His tag
T4 sequence (looked up): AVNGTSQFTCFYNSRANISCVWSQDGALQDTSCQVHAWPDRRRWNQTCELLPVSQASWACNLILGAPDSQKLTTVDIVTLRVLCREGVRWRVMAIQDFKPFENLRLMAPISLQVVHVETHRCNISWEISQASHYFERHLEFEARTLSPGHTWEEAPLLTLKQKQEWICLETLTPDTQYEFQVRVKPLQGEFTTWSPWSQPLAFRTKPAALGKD

[3] = target: T1, mouse IL-2Rαβγc (on CTLL2-STAT5 …); assay: cell-based or functional assay; remark: listed apart in the source
[4] = target: T2, human IL-2Rβγc (on DERL-7 cells, U2OS …); assay: cell-based or functional assay; remark: listed apart in the source
Human IL-2Rβ (Table 7B) = target: T5, Human IL-2Rβ (Table 7B) (human, UniProt P14784 27-239, limits assumed); assay: SPR (Biacore T200)
T5 sequence (looked up): T4 sequence (looked up)

[5] = target: T2, human IL-2Rβγc (on DERL-7 cells, U2OS …); assay: cell-based or functional assay; remark: listed apart in the source
[6] = target: T6, human IL-2Rαβγc (on Kit225-STAT5 reporter cells, NK-92 cells, primary Treg cells) (human, UniProt P01589 22-272; P14784 27-551; P31785 23-369); assay: cell-based or functional assay
T6 sequence (looked up) 1: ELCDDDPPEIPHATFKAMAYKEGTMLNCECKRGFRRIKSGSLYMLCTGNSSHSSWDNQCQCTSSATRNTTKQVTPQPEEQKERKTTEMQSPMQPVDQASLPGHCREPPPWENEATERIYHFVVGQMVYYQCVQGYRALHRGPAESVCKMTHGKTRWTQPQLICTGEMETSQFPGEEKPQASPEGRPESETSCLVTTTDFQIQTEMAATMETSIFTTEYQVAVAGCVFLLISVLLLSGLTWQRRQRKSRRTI
T6 sequence (looked up) 2: T2 sequence (looked up) 1
T6 sequence (looked up) 3: T2 sequence (looked up) 2

[7] = target: T6, human IL-2Rαβγc (on Kit225-STAT5 …); assay: cell-based or functional assay; remark: listed apart in the source

STAT5-CTLL2 EC50 [3]: 98.5 nM | STAT5-CTLL2 EC50 Fold Change [3]: 10900 fold | U2OS B/BG EC50 Fold Change [4]: 3.15 fold | U2OS B/BG bridging cell assay EC50 [4]: 0.503 nM | Kd (Human IL-2Rβ (Table 7B)): 1000 nM | koff (Human IL-2Rβ (Table 7B)): 0.36 s⁻¹ | kon (Human IL-2Rβ (Table 7B)): 350000 M⁻¹ s⁻¹ | DERL7 EC50 Fold Change [5]: 1.4 fold | DERL7 cell assay EC50 [5]: 0.025 nM | NK-92 EC50 Fold Change [6]: 9.09 fold | NK-92 cell assay EC50 [6]: 0.063 nM
B4: Ald-6HIS_T40D/F41K/E60T (ligand)
chain: PTSSSTKKTQLQLEHLLLDLQMILNGINNYKNPKLTRMLDKKFYMPKKATELKHLQCLETELKPLEEVLNLAQSKNFHLRPRDLISNINVIVLELKGSETTFMCEYADETATIVEFLNRWITFSQSIISTLTGGSHHHHHH

STAT5-CTLL2 EC50 [3]: 6.31 nM | STAT5-CTLL2 EC50 Fold Change [3]: 699 fold | U2OS B/BG EC50 Fold Change [4]: 1.84 fold | U2OS B/BG bridging cell assay EC50 [4]: 0.294 nM | Kd (Human IL-2Rβ (Table 7B)): 980 nM | koff (Human IL-2Rβ (Table 7B)): 0.32 s⁻¹ | kon (Human IL-2Rβ (Table 7B)): 330000 M⁻¹ s⁻¹ | DERL7 EC50 Fold Change [5]: 0.65 fold | DERL7 cell assay EC50 [5]: 0.012 nM | NK-92 EC50 Fold Change [6]: 2.81 fold | NK-92 cell assay EC50 [6]: 0.02 nM
B6: Ald-6HIS_T40D/F41K (ligand)
chain: B4 chain with T60E

CTLL2-STAT5 EC50 [1]: > 7 nM | U2OS-IL2Rbg EC50 [2]: 2.87 nM | Kd (Biotin-IL-2Rβ-His): 2000 nM | fold reduction over wt (Biotin-IL-2Rβ-His): 5 fold
B7: Ald-6HIS_E61S/Y106A (ligand)
chain: B4 chain with D40T, K41F, T60E, E61S, Y106A

Kit225-STAT5 reporter, fold lower activity than aldesleukin [7]: 190 fold
B9: Ald_S4pAMF/R37A/F41K (MUT1) (ligand)
chain: PTS[pAMF]STKKTQLQLEHLLLDLQMILNGINNYKNPKLTAMLTKKFYMPKKATELKHLQCLEEELKPLEEVLNLAQSKNFHLRPRDLISNINVIVLELKGSETTFMCEYADETATIVEFLNRWITFSQSIISTLT
modifications: ends and bridges not checked

Second part, the binder before the results:

B1: Ald-6HIS_E60T/E61S (ligand)
chain: B4 chain with D40T, K41F, E61S
CTLL2-STAT5 EC50 [1]: 0.525 nM | U2OS-IL2Rbg EC50 [2]: 1.95 nM | Kd (Biotin-IL-2Rα-His): 800 nM | fold reduction over wt (Biotin-IL-2Rα-His): 80 fold | Kd (Biotin-IL-2Rβ-His): 2000 nM | fold reduction over wt (Biotin-IL-2Rβ-His): 5 fold

B2: Ald-6HIS_E61S/P64A/Y106A (ligand)
chain: B4 chain with D40T, K41F, T60E, E61S, P64A, Y106A
CTLL2-STAT5 EC50 [1]: > 7 nM | U2OS-IL2Rbg EC50 [2]: 5.77 nM

B3: Ald-6HIS_E61S/P64A (ligand)
chain: B4 chain with D40T, K41F, T60E, E61S, P64A
CTLL2-STAT5 EC50 [1]: 0.213 nM | U2OS-IL2Rbg EC50 [2]: 0.634 nM | Kd (Biotin-IL-2Rα-His): 500 nM | fold reduction over wt (Biotin-IL-2Rα-His): 50 fold | Kd (Biotin-IL-2Rβ-His): 500 nM | fold reduction over wt (Biotin-IL-2Rβ-His): 1 fold

B5: Ald-6HIS_E60T/E61S/P64A (ligand)
chain: B4 chain with D40T, K41F, E61S, P64A
CTLL2-STAT5 EC50 [1]: 1.09 nM | U2OS-IL2Rbg EC50 [2]: 1.96 nM | Kd (Biotin-IL-2Rα-His): 2000 nM | fold reduction over wt (Biotin-IL-2Rα-His): 200 fold | Kd (Biotin-IL-2Rβ-His): 1000 nM | fold reduction over wt (Biotin-IL-2Rβ-His): 3 fold

B8: Ald-6HIS_E60T/P64A (ligand)
chain: B4 chain with D40T, K41F, P64A
CTLL2-STAT5 EC50 [1]: 0.024 nM | U2OS-IL2Rbg EC50 [2]: 0.499 nM | Kd (Biotin-IL-2Rα-His): 60 nM | fold reduction over wt (Biotin-IL-2Rα-His): 6 fold | Kd (Biotin-IL-2Rβ-His): 700 nM | fold reduction over wt (Biotin-IL-2Rβ-His): 2 fold
